Columns and labels:
[1] = molecular target: pyranose oxidase from Oscillatoria princeps (OPOx) (Oscillatoria princeps); test: crystal structure; X-ray, 2.64 Å, space group P2(1)2(1)2(1), tetramer in the asymmetric unit; crystals with sodium sulfate as additive at pH 9.2. A low-resolution C222(1) crystal form has a dimer in the asymmetric unit and forms the tetramer through a crystallographic two-fold axis
[2] = molecular target: pyranose oxidase from Oscillatoria princeps (OPOx) (Oscillatoria princeps); test: dynamic light scattering + SEC; DLS: about 15 μM OPOx in 50 mM citrate buffer (pH 5.5), 294 K; gel permeation chromatography (Fig. S3)
[3] = molecular target: T1, OPOx (pyranose oxidase from Oscillatoria princeps) (Oscillatoria princeps, UniProt A0ABF7PQA8); test: X-ray crystal structure, […] Å; type: binding; settings: covalent; 8α-methyl of FAD bound to His125 NE2; crystals at pH 9.2
T1 construct: full length, 534 residues (533 also printed), N-terminal His-tag, pBAD vector, E. coli NEB 10-beta; synthetic codon-optimised gene; 61 kDa with tag; homotetramer
T1 sequence (A0ABF7PQA8 1-533): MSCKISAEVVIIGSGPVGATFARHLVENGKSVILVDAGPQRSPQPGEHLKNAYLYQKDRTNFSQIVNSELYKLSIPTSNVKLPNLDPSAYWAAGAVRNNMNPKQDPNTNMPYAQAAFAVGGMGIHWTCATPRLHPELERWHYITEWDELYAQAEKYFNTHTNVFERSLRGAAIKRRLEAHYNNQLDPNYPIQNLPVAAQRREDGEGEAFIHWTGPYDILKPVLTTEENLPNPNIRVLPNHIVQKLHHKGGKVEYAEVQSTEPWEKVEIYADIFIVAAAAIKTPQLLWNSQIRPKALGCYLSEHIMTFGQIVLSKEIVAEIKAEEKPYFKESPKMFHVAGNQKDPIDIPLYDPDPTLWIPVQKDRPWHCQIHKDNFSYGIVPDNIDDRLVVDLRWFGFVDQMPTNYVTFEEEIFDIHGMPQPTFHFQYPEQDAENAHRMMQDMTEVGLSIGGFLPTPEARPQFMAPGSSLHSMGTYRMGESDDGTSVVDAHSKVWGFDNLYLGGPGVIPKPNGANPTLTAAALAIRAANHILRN

Row | Compound | stoichiometry N [1] | stoichiometry N [2] | X-ray crystal structure, 2.64 Å [3]
1 | pyranose oxidase from Oscillatoria princeps (OPOx) (enzyme) | 4 | 4 | –
2 | Cc1cc2nc3c(=O)[nH]c(=O)nc-3n(C[C@H](O)[C@H](O)[C@H](O)COP(=O)(O)OP(=O)(O)OC[C@H]3O[C@@H](n4cnc5c(N)ncnc54)[C@H](O)[C@@H]3O)c2cc1C [FAD] | – | – | crystal structure of OPOx with a covalently bound FAD cofactor per subunit
